Assays:
[1] = molecular target: T1, recombinant human CD86 (ACROBiosystems) (human, UniProt P42081 26-247, limits assumed); assay: ELISA, plate coated with 1 µg/mL recombinant human protein, anti-human IgG-HRP, OD450; antibody concentration not given
T1 construct: counted here as a B7 family member
T1 sequence (looked up): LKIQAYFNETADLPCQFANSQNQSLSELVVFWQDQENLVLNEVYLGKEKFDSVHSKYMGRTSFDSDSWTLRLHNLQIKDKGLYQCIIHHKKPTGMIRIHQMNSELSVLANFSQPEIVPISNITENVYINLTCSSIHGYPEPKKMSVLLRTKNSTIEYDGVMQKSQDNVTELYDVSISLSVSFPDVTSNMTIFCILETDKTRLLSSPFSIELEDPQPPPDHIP
Protocol: (§1) Binding specificity of the chimeric anti-human CD47 mAbs was determined by ELISA. A 96-well high-adsorption ELISA plate was coated with 1 μg/mL of the recombinant human PD1, CD28, CTLA4, ICOS, BTLA, CD47, PD-L2, CD80, CD86, B7-H2, CD47, SIRPα and SIRPγ (all from ACROBiosystems), at 100 μL per well using carbonate buffer solution, pH=9.6 at 4° C. overnight. The plate was washed 5 times with PBST, and then blocked using PBST with 1% BSA, 300 μL/well, and incubated at 25° C. for 1 hour, and then washed 5 times with PBST. The chimeric anti-human CD47 mAb samples serially diluted in PBST with 1% BSA and the control CC-90002 and the isotype control were added, 100 μL/well, incubated at 25° C. for 1 hour, and then washed 5 times with PBST. The horseradish peroxidase-labeled anti-human IgG antibody (Chemicon, catalog number AP309P) diluted 1:10000 in PBST with 1% BSA was then added, 100 μL per well, and incubated at 25° C. for 1 hour. The plate was washed 5 times with PBST. The colorimetric substrate TMB was added, 100 μL/well, and developed at room temperature for 10 minutes. 1M H₂SO₄ was added, 100 μL/well, to stop the development. The absorbance at 450 nm was read on a microplate reader.

[2] = molecular target: T2, recombinant human SIRPα (ACROBiosystems) (human, UniProt P78324 31-370); assay: as above
T2 construct: unlabelled protein coated in the specificity ELISA
T2 sequence (P78324 31-370 limits assumed): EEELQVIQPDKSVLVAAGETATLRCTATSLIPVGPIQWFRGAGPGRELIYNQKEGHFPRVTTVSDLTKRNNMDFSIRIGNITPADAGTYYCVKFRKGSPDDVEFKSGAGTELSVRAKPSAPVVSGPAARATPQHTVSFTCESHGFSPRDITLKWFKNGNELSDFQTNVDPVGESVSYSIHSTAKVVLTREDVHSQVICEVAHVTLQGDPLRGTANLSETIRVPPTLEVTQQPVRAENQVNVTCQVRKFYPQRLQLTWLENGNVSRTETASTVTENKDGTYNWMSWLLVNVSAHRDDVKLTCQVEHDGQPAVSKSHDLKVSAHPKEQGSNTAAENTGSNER
Protocol: as §1

[3] = molecular target: T3, recombinant human PD1 (ACROBiosystems) (human, UniProt Q15116 25-167); assay: as above
T3 construct: counted here as a CD28 family member
T3 sequence (Q15116 25-167 limits assumed): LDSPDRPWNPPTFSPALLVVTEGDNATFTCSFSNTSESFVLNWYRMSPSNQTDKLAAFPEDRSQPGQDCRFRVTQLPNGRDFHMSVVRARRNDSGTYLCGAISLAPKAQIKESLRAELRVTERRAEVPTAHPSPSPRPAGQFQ
Protocol: as §1

[4] = molecular target: recombinant human SIRPγ (ACROBiosystems) (human, UniProt Q9P1W8 29-360, limits assumed); assay: as above
Sequence of recombinant human SIRPγ (ACROBiosystems) (Q9P1W8 29-360 limits assumed): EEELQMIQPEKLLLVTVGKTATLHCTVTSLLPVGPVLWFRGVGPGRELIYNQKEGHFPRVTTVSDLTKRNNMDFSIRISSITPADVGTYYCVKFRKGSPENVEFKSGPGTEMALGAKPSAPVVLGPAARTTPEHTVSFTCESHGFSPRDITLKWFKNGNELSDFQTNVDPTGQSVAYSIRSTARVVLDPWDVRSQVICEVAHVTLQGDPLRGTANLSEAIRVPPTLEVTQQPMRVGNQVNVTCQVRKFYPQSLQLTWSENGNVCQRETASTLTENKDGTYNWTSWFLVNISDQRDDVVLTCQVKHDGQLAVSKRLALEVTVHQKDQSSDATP
Protocol: as §1

[5] = molecular target: T4, recombinant human CTLA4 (ACROBiosystems) (human, UniProt P16410 37-162, limits assumed); assay: as above
T4 construct: counted here as a CD28 family member
T4 sequence (P16410 37-162 limits assumed): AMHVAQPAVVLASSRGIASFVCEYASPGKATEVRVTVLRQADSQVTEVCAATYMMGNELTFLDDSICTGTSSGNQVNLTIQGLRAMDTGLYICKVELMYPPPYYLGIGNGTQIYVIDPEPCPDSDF
Protocol: as §1

[6] = molecular target: T5, recombinant human CD80 (ACROBiosystems) (human, UniProt P33681 35-242); assay: as above
T5 construct: counted here as a B7 family member
T5 sequence (looked up): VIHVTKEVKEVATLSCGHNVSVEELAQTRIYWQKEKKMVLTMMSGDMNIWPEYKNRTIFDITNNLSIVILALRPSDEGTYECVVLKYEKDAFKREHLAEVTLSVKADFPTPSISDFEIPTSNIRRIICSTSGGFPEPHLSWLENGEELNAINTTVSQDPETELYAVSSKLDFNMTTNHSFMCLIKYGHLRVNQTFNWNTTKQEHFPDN
Protocol: as §1

[7] = molecular target: T6, recombinant human ICOS (ACROBiosystems) (human, UniProt Q9Y6W8 21-140, limits assumed); assay: as above
T6 construct: counted here as a CD28 family member
T6 sequence (looked up): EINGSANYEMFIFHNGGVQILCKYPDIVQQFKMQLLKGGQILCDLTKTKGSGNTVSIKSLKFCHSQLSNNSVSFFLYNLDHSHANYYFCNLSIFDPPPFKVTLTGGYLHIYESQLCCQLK
Protocol: as §1

[8] = molecular target: T7, recombinant human PD-L2 (ACROBiosystems) (human, UniProt Q9BQ51 20-219, limits assumed); assay: as above
T7 construct: counted here as a B7 family member
T7 sequence (looked up): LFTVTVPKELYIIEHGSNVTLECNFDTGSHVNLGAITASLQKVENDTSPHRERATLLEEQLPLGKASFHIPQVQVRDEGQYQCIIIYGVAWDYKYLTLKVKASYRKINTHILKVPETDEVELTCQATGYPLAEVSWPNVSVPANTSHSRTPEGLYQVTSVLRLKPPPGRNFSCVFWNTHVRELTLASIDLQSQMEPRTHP
Protocol: as §1

recombinant human CD47 = molecular target: T8, recombinant human CD47 (human, UniProt Q08722 19-139); assay: SPR, Biacore X100, antibody captured on Protein A chip, CD47 as analyte
T8 construct: also called antigen CD47
T8 sequence (Q08722 19-139 limits assumed): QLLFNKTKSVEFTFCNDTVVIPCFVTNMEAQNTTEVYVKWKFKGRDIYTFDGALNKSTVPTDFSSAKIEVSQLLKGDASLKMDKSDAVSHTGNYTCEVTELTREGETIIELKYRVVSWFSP
Source text: Biacore X100 instrument (purchased from GE) was used to detect the kinetic constant of the chimeric anti-human CD47 monoclonal antibodies binding to its antigen human CD47. This instrument utilizes optical surface plasmon resonance technology to detect the association and dissociation between the molecules coated on the biochip and the molecules to be tested. The main reagent used is Protein A chip (GE Healthcare, 29-1275-57). The experimental procedure is briefly described as follows: the chimeric anti-human CD47 antibodies were diluted in running buffer (1×HBS-EP+10 mM HEPES, 150 mM NaCl, 3 mM EDTA, 0.05% surfactant P20, pH7.4). During the capture-binding phase, the antibodies at a concentration of 2 μg/mL were injected for 60 seconds at a speed of 10 μL/min. During the binding phase, the antigen CD47 was diluted into multiple concentrations with running buffer, injected for 120 seconds at a speed of 30 μL/min respectively. During the dissociation phase, running buffer was injected for 600 seconds at a speed of 10 μL/min. The regeneration condition is 10 mM glycinate solution, pH1.5. Association kinetic constants and dissociation kinetic constants were analyzed and calculated by Biacore X100 evaluation software. The association kinetic constants, dissociation kinetic constants and dissociation equilibrium constants of the chimeric anti-human CD47 antibodies were shown in Table 7.

binding result [1]: no binding | binding result [2]: no binding | binding result [3]: no binding | binding result [4]: no binding | binding result [5]: no binding | binding result [6]: no binding | binding result [7]: no binding | binding result [8]: no binding | Kd (recombinant human CD47): 0.693 nM | koff (recombinant human CD47): 0.000823 s⁻¹ | kon (recombinant human CD47): 1.19e+06 M⁻¹ s⁻¹
B1: chimeric anti-human CD47 monoclonal antibody mAb-18-5 (antibody, human IgG1, kappa)
heavy: not shown
light: DIVMTQSQKFMSTSVGDRVSITCKASQNVRTSIAWYQQKSGQSPKTLIYLASNRHTGVPDRFTGSGSGTDFTLTISNVQSEDLADYFCLQHWNYPFTFGSGTKLEIKRTVAAPSVFIFPPSDEQLKSGTASVVCLLNNFYPREAKVQWKVDNALQSGNSQESVTEQDSKDSTYSLSSTLTLSKADYEKHKVYACEVTHQGLSSPVTKSFNRGEC

From US20250277031A1 (BEIJING HANMI PHARMACEUTICAL, published 2025)
